# Measurements from the Immune Epitope Database (IEDB).
# Key:
# [1] = biological target: HLA-B*27:03; test: IEDB peptide-MHC binding, purified MHC/competitive/fluorescence; filed as Kd, often an IC50 or EC50 that approximates it; ≥ and ≤ were set here for values at or beyond the usual limits of such assays; conditions: source organism: Zaire ebolavirus
# [2] = biological target: HLA-B*39:01; test: as above; conditions: source organism: Zaire ebolavirus
# [3] = biological target: HLA-B*15:17; test: as above; conditions: source organism: Zaire ebolavirus
# [4] = biological target: HLA-A*26:01; test: as above; conditions: source organism: Zaire ebolavirus
# [5] = biological target: HLA-B*51:01; test: as above; conditions: source organism: Zaire ebolavirus
# [6] = biological target: HLA-B*08:01; test: IEDB peptide-MHC binding, purified MHC/direct/fluorescence; filed as Kd, often an IC50 or EC50 that approximates it; ≥ and ≤ were set here for values at or beyond the usual limits of such assays
# [7] = biological target: HLA-A*02:01; test: as above
# [8] = biological target: HLA-A*02:12; test: as above; conditions: source organism: Zaire ebolavirus
# [9] = biological target: HLA-B*57:01; test: as above
# [10] = biological target: HLA-A*29:02; test: as above
# [11] = biological target: HLA-A*31:01; test: as above
# [12] = biological target: HLA-A*69:01; test: as above
# [13] = biological target: HLA-A*68:02; test: as above; conditions: source organism: Zaire ebolavirus
# [14] = biological target: HLA-A*24:03; test: as above
# [15] = biological target: HLA-A*02:11; test: as above; conditions: source organism: Zaire ebolavirus
# [16] = biological target: HLA-A*03:01; test: as above
# [17] = biological target: HLA-B*07:02; test: as above
# [18] = biological target: HLA-B*44:02; test: as above
# [19] = biological target: HLA-B*15:01; test: as above
# [20] = biological target: HLA-B*27:05; test: as above
# [21] = biological target: HLA-A*01:01; test: as above
# [22] = biological target: HLA-B*58:01; test: as above
# [23] = biological target: HLA-B*46:01; test: as above
# [24] = biological target: HLA-A*11:01; test: as above
# [25] = biological target: HLA-A*23:01; test: as above
# [26] = biological target: HLA-B*40:01; test: as above
# [27] = biological target: HLA-B*18:01; test: as above
# [28] = biological target: HLA-A*26:01; test: as above
# [29] = biological target: HLA-A*30:01; test: as above
# [30] = biological target: HLA-B*08:02; test: as above
# [31] = biological target: HLA-A*02:01; test: IEDB peptide-MHC binding, purified MHC/competitive/fluorescence; ≥ and ≤ were set here for values at or beyond the usual limits of such assays
# [32] = biological target: HLA-B*15:01; test: as above
# [33] = biological target: HLA-C*15:02; test: IEDB peptide-MHC binding, purified MHC/direct/fluorescence; filed as Kd, often an IC50 or EC50 that approximates it; ≥ and ≤ were set here for values at or beyond the usual limits of such assays
# [34] = biological target: HLA-A*03:01; test: IEDB peptide-MHC binding, purified MHC/competitive/fluorescence; ≥ and ≤ were set here for values at or beyond the usual limits of such assays
# [35] = biological target: HLA-A*24:02; test: as above
# [36] = biological target: HLA-A*11:01; test: as above
# [37] = biological target: HLA-B*35:01; test: IEDB peptide-MHC binding, purified MHC/competitive/fluorescence; filed as Kd, often an IC50 or EC50 that approximates it; ≥ and ≤ were set here for values at or beyond the usual limits of such assays; conditions: source organism: Influenza A virus H3N2
# [38] = biological target: HLA-A*23:01; test: as above; conditions: source organism: Bacillus cereus ATCC 14579
# [39] = biological target: HLA-C*05:01; test: IEDB peptide-MHC binding, purified MHC/direct/fluorescence; filed as Kd, often an IC50 or EC50 that approximates it; ≥ and ≤ were set here for values at or beyond the usual limits of such assays; conditions: source organism: Mycobacterium tuberculosis variant bovis BCG str. Pasteur 1173P2
# [40] = source organism: Sudan ebolavirus - Maleo (1979)
# [41] = source organism: Zaire ebolavirus
# [42] = source organism: Aggregatibacter actinomycetemcomitans
# [43] = source organism: Orthohantavirus hantanense
# [44] = source organism: Vibrio vulnificus CMCP6
# [45] = source organism: Vaccinia virus
# [46] = source organism: Sudan ebolavirus
# [47] = source organism: Corynebacterium glutamicum
# [48] = source organism: Yersinia pestis Antiqua
# [49] = source organism: Yersinia pestis
# [50] = source organism: Treponema denticola
sequence,measurement,setting,value
MHYKLDEVL,Kd,[1],≥ 20 µM
same,Kd,[2],0.0041 µM
same,Kd,[3],≥ 20 µM
same,Kd,[4],≥ 20 µM
same,Kd,[5],≥ 20 µM
same,Kd,[6]; [40],≥ 20 µM
same,Kd,[7]; [40],≥ 20 µM
same,Kd,[8],≥ 20 µM
same,Kd,[9]; [40],≥ 20 µM
same,Kd,[10]; [40],≥ 20 µM
same,Kd,[11]; [40],≥ 20 µM
same,Kd,[12]; [40],≥ 20 µM
same,Kd,[13],≥ 20 µM
same,Kd,[14]; [41],≥ 20 µM
same,Kd,[15],≥ 20 µM
same,Kd,[16]; [40],≥ 20 µM
same,Kd,[17]; [40],≥ 20 µM
same,Kd,[18]; [40],≥ 20 µM
same,Kd,[19]; [40],≥ 20 µM
same,Kd,[20]; [40],≥ 20 µM
same,Kd,[21]; [40],≥ 20 µM
same,Kd,[22]; [40],≥ 20 µM
same,Kd,[23]; [40],≥ 20 µM
same,Kd,[24]; [40],≥ 20 µM
same,Kd,[25]; [41],≥ 20 µM
same,Kd,[26]; [40],≥ 20 µM
same,Kd,[27]; [40],≥ 20 µM
RSEVELCIY,Kd,[6]; [42],≥ 20 µM
same,Kd,[7]; [42],≥ 20 µM
same,Kd,[11]; [42],≥ 20 µM
same,Kd,[12]; [42],≥ 20 µM
same,Kd,[28]; [42],≥ 20 µM
same,Kd,[14]; [42],≥ 20 µM
same,Kd,[29]; [42],≥ 10 µM
same,Kd,[16]; [42],≥ 20 µM
same,Kd,[17]; [42],≥ 20 µM
same,Kd,[19]; [42],6.28 µM
same,Kd,[20]; [42],≥ 20 µM
same,Kd,[21]; [42],0.111 µM
same,Kd,[22]; [42],0.663 µM
same,Kd,[24]; [42],≥ 20 µM
same,Kd,[26]; [42],≥ 20 µM
NYYAPRIQF,Kd,[14]; [43],0.0074 µM
same,Kd,[29]; source organism: Hantaan virus Q32,≥ 20 µM
same,Kd,[25]; [43],0.0059 µM
RGRKRFHTL,Kd,[6]; [44],0.009 µM
same,Kd,[30]; [44],6.76 µM
RAFRNLNVT,IC50,[31]; [45],48.3 µM
same,IC50,[32]; [45],≥ 77.9 µM
VTTPARTAF,Kd,[33]; source organism: Mycobacterium tuberculosis C,≥ 20 µM
same,Kd,[22]; source organism: Mycobacterium avium 104,1.1 µM
IIIAVARKH,IC50,[31]; source organism: Variola virus,50.9 µM
same,IC50,[34]; source organism: Variola virus,35.5 µM
same,IC50,[35]; source organism: Variola virus,2.98 µM
same,IC50,[32]; source organism: Variola virus,36.4 µM
same,IC50,[36]; source organism: Variola virus,14.5 µM
YFNVLDEKY,IC50,[35]; [45],33 µM
same,IC50,[32]; [45],≥ 283 µM
LTITYSSSM,Kd,[37],1.18 µM
same,Kd,[28]; source organism: Influenza A virus (A/swine/Miyagi/5/2003(H1N2)),0.0618 µM
ILMEHIHKL,Kd,[33]; source organism: Rattus norvegicus,0.239 µM
ILFQKAFSM,IC50,[31]; [46],0.626 µM
same,IC50,[34]; [46],15.7 µM
same,IC50,[35]; [46],0.336 µM
same,IC50,[32]; [46],4.24 µM
same,IC50,[36]; [46],54.8 µM
KLFSYGTLI,IC50,[31]; source organism: Variola virus,0.61 µM
same,IC50,[34]; source organism: Variola virus,5.5 µM
same,IC50,[32]; source organism: Variola virus,26.2 µM
ATQPVHWFL,Kd,[6]; [47],≥ 20 µM
same,Kd,[7]; [47],0.115 µM
same,Kd,[28]; [47],≥ 20 µM
same,Kd,[14]; [47],0.00444 µM
same,Kd,[29]; [47],0.0317 µM
same,Kd,[16]; [47],≥ 20 µM
same,Kd,[17]; [47],6.67 µM
same,Kd,[19]; [47],≥ 20 µM
same,Kd,[20]; [47],≥ 20 µM
same,Kd,[21]; [47],3.13 µM
same,Kd,[22]; [47],0.444 µM
same,Kd,[24]; [47],0.021 µM
same,Kd,[26]; [47],≥ 20 µM
YQRRRRFAI,Kd,[7]; source organism: Brucella suis,≥ 20 µM
same,Kd,[9]; source organism: Brucella suis,≥ 20 µM
same,Kd,[10]; source organism: Brucella suis,≥ 20 µM
same,Kd,[12]; source organism: Brucella suis,≥ 20 µM
same,Kd,[16]; source organism: Brucella suis,≥ 20 µM
same,Kd,[17]; source organism: Brucella suis,≥ 20 µM
same,Kd,[30]; source organism: Brucella suis 1330,0.367 µM
same,Kd,[18]; source organism: Brucella suis,≥ 20 µM
same,Kd,[21]; source organism: Brucella suis,≥ 20 µM
same,Kd,[22]; source organism: Brucella suis,≥ 20 µM
same,Kd,[23]; source organism: Brucella suis,≥ 20 µM
same,Kd,[26]; source organism: Brucella suis,≥ 20 µM
same,Kd,[27]; source organism: Brucella suis,≥ 20 µM
SQVPKLLLW,IC50,[32]; source organism: Variola virus,≥ 121 µM
AVSHLTTLA,IC50,[31]; [41],3.08 µM
same,IC50,[32]; [41],≥ 135 µM
KSRRFTVRF,Kd,[33]; source organism: Mycobacterium tuberculosis variant bovis BCG str. Pasteur 1173P2,≥ 20 µM
same,Kd,[22]; source organism: Mycobacterium tuberculosis,0.422 µM
RYQRMTGGY,Kd,[6]; [48],≥ 20 µM
same,Kd,[7]; [48],≥ 20 µM
same,Kd,[11]; [49],0.388 µM
same,Kd,[12]; [48],≥ 20 µM
same,Kd,[28]; [48],≥ 20 µM
same,Kd,[14]; [49],0.00621 µM
same,Kd,[29]; [49],2.34 µM
same,Kd,[16]; [48],≥ 20 µM
same,Kd,[17]; [48],≥ 20 µM
same,Kd,[19]; [49],1.35 µM
same,Kd,[20]; [49],2.93 µM
same,Kd,[21]; [48],≥ 20 µM
same,Kd,[22]; [48],≥ 20 µM
same,Kd,[26]; [48],≥ 20 µM
TVCGGIMFL,Kd,[33]; source organism: human gammaherpesvirus 4,2.47 µM
LYSLWTKRK,Kd,[38],0.245 µM
RQDEVGTPF,Kd,[7]; [50],2.01 µM
same,Kd,[12]; [50],≥ 20 µM
same,Kd,[39],≤ 0.001 µM
